From the supplement of paper PMC7125110 come the findings set out here.

B1: glmS ribozyme (parent)
chain: AUAAAAGCGCCAGAACUACAGAAAUGUAGUUGACGAGGAGGAGGUUUAUCGAAUUUUCGGCGGAUGCCUCCAAA

Common to all, as to conditions: with glucosamine-6-phosphate
In data set [1] the parent is B1. The experiment in a line: self-cleavage kobs at 160 uM GlcN6P; higher = faster cleavage; RNA array. In short, it runs like this:
(§1)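 Tiles bearing barcoded ribozyme variants, transcribed in situ by E. coli RNA polymerase on sequenced MiSeq chips, were imaged over ~14 h at 37 °C using a hybridised Cy3 probe. Glucosamine-6-phosphate was supplied at 40 μM to 10 mM in HEPES/KCl/Mg(OAc)2 buffer. kobs came from one- or two-exponential decay fits to normalised per-tile medians, and weighted Michaelis–Menten fits then provided kcat and KM.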

Data set [2] covers variants of B1. The experiment in a line: self-cleavage kobs at 640 uM GlcN6P; higher = faster cleavage; RNA array. In short, it runs like this: as §1
Data set [3] covers variants of B1. The experiment in a line: self-cleavage kobs at 2500 uM GlcN6P; higher = faster cleavage; RNA array. In short, it runs like this: as §1
In data set [4] the parent is B1. The data set is described as follows: self-cleavage kobs at 10000 uM GlcN6P; higher = faster cleavage; RNA array. A digest of the protocol: as §1

± gives the standard error. Variants at the floor of the assay were thinned out. Bounds are passed on as bounds.

In the case of AUAAAAGCGCCAGAACUACAGAAAUGUAGUUGACGAGGAGGAGGUUUAUCGCACUUUCGGCGGAUGCCUCCAAA [A52C U54C], the “self-cleavage kobs at 160 uM GlcN6P” value with glucosamine-6-phosphate [1] is under 1e-05 s⁻¹.
Turning to AUAAAAGCGCCAGAACUACAGAAAUGUAGUUGACGAGGAGGAGGUGUAUCGAAUUGUCGGCGGAUGCCUUCAAA [U46G U56G C70U], in the data set with glucosamine-6-phosphate [1], the “self-cleavage kobs at 160 uM GlcN6P” value stood at 0.000211 ± 5.3e-05 s⁻¹. Also, the “self-cleavage kobs at 640 uM GlcN6P” value with glucosamine-6-phosphate [2] is 0.000436 ± 9.2e-05 s⁻¹. Further, the “self-cleavage kobs at 2500 uM GlcN6P” value with glucosamine-6-phosphate [3] stood at 0.00119 ± 0.00031 s⁻¹.
AUAAAAGUGCCAGAACUACAGAAAUGUAGUUGGCGAUGAGGACGUUUAUCGAAAUCUCGGCGGAUGUCUCCAAA [C8U A33G G37U G43C U54A U56C C67U]: in the data set with glucosamine-6-phosphate [1], the “self-cleavage kobs at 160 uM GlcN6P” value is under 1e-05 s⁻¹. Also, the “self-cleavage kobs at 640 uM GlcN6P” value in the data set with glucosamine-6-phosphate [2] is under 1e-05 s⁻¹. The “self-cleavage kobs at 2500 uM GlcN6P” value in the data set with glucosamine-6-phosphate [3] was under 1e-05 s⁻¹.
In the case of AUAAAAGCGCCAGAACUACAGAAAUGUAGUUGAUGAGGAGGAGGUUUAUCGAAAUUUCGGCGGAUGCCGCCAAA [C34U U54A U69G], the “self-cleavage kobs at 160 uM GlcN6P” value in the data set with glucosamine-6-phosphate [1] came out at 0.000126 ± 4.6e-05 s⁻¹. Moreover, the “self-cleavage kobs at 640 uM GlcN6P” value with glucosamine-6-phosphate [2] is 0.000598 ± 0.0002 s⁻¹. Besides, the “self-cleavage kobs at 2500 uM GlcN6P” value with glucosamine-6-phosphate [3] was 0.000128 ± 4.7e-05 s⁻¹. For the same variant, in the data set with glucosamine-6-phosphate [4], the “self-cleavage kobs at 10000 uM GlcN6P” value was 0.000125 ± 3.4e-05 s⁻¹.
In the case of AUAAAAGAGCCAGAACUACAGAAAUGUAGUUGACGAGGAGGAGGUUUAUCGAUUCUUUGGCGGAUGCCCCCAAA [C8A A53U U55C C58U U69C], in the data set with glucosamine-6-phosphate [1], the “self-cleavage kobs at 160 uM GlcN6P” value was under 1e-05 s⁻¹.
Regarding AUAAAAGCGCCUGAACUACAGAAAUGUAGUUGAUGUGGAGGAGGUUUAUCGAAUGUUCGGCGGAUGCCUCCAAA [A12U C34U A36U U55G], the “self-cleavage kobs at 160 uM GlcN6P” value with glucosamine-6-phosphate [1] is under 1e-05 s⁻¹. Besides, in the data set with glucosamine-6-phosphate [2], the “self-cleavage kobs at 640 uM GlcN6P” value is under 1e-05 s⁻¹. For the same variant, in the data set with glucosamine-6-phosphate [4], the “self-cleavage kobs at 10000 uM GlcN6P” value is under 1e-05 s⁻¹.
For AUAAAAGCGCCAGAACUACAGAAAUGUAGUUGACGAGGAGGAGGUUUUUCGAAUUUUCGGCGGAUGCUUUCAAA [A48U C68U C70U], the “self-cleavage kobs at 160 uM GlcN6P” value with glucosamine-6-phosphate [1] is under 1e-05 s⁻¹.
Regarding AUAAAGACGCCAGAACUACAGAAAUGUAGUUGACGAGGAGGACGUUUAUCGAAUUUUCGGCGGAUGCCUCCAAA [A6G G7A G43C], the “self-cleavage kobs at 160 uM GlcN6P” value with glucosamine-6-phosphate [1] is under 1e-05 s⁻¹. Also, in the data set with glucosamine-6-phosphate [2], the “self-cleavage kobs at 640 uM GlcN6P” value was under 1e-05 s⁻¹. Besides, in the data set with glucosamine-6-phosphate [3], the “self-cleavage kobs at 2500 uM GlcN6P” value is under 1e-05 s⁻¹. In addition, the “self-cleavage kobs at 10000 uM GlcN6P” value with glucosamine-6-phosphate [4] was under 1e-05 s⁻¹.
In the case of AUAAAAGCGCCAGAACUACAGAAAUGUAGUUGACGAGCAGUAGGUUUAUCGAAUUUUCGGCGCAUGCCUCCAAA [G38C G41U G63C], in the data set with glucosamine-6-phosphate [1], the “self-cleavage kobs at 160 uM GlcN6P” value was under 1e-05 s⁻¹. In the data set with glucosamine-6-phosphate [3], the “self-cleavage kobs at 2500 uM GlcN6P” value is under 1e-05 s⁻¹.
Consider AUAAAACCGCCAGAACUACAGAAAUGUAGUUGACGAGGAGGAGGUUAAUCGAAUUUUCGGCGGAUGCCUCCAAA [G7C U47A], for which, in the data set with glucosamine-6-phosphate [1], the “self-cleavage kobs at 160 uM GlcN6P” value was under 1e-05 s⁻¹. Further, in the data set with glucosamine-6-phosphate [2], the “self-cleavage kobs at 640 uM GlcN6P” value is under 1e-05 s⁻¹. Further, the “self-cleavage kobs at 10000 uM GlcN6P” value with glucosamine-6-phosphate [4] was under 1e-05 s⁻¹.
As to AUAAAAACGCCAGAACUACAGAAAUGUAGUUGACGAGGAGGAGGUUUAUCGAAUUCUCGGCGGAUGCCUCCAAA [G7A U56C], the “self-cleavage kobs at 160 uM GlcN6P” value with glucosamine-6-phosphate [1] is under 1e-05 s⁻¹. Further, in the data set with glucosamine-6-phosphate [2], the “self-cleavage kobs at 640 uM GlcN6P” value was under 1e-05 s⁻¹. In addition, in the data set with glucosamine-6-phosphate [3], the “self-cleavage kobs at 2500 uM GlcN6P” value was under 1e-05 s⁻¹. In addition, in the data set with glucosamine-6-phosphate [4], the “self-cleavage kobs at 10000 uM GlcN6P” value was under 1e-05 s⁻¹.
In the case of AUAAAAGCGCCAGAACUACAGAAAUGUAGUUGGCACGGAGGAGGUUUAUCGAAUUUUCGGCGGGUGCCUCCAAA [A33G G35A A36C A64G], in the data set with glucosamine-6-phosphate [1], the “self-cleavage kobs at 160 uM GlcN6P” value was under 1e-05 s⁻¹.
AUAAAAGCGCCAGAACUACAGAAAUGUAGUUGACGACGAGGACGUUUAUCGAAUUUUCGGCGGAUGCCUCCAAA [G37C G43C]: the “self-cleavage kobs at 160 uM GlcN6P” value with glucosamine-6-phosphate [1] was under 1e-05 s⁻¹. For the same variant, the “self-cleavage kobs at 640 uM GlcN6P” value with glucosamine-6-phosphate [2] is under 1e-05 s⁻¹. In addition, the “self-cleavage kobs at 2500 uM GlcN6P” value with glucosamine-6-phosphate [3] is under 1e-05 s⁻¹. The “self-cleavage kobs at 10000 uM GlcN6P” value with glucosamine-6-phosphate [4] is under 1e-05 s⁻¹.
On to AUAAAAGCGCCAGAACUACAGAAAUGUAGUUGACGAGGAGGAGGUUAAUCGAAUUUUCGGCGCAUGCCUCCAAA [U47A G63C], for which the “self-cleavage kobs at 160 uM GlcN6P” value with glucosamine-6-phosphate [1] was under 1e-05 s⁻¹. Further, the “self-cleavage kobs at 640 uM GlcN6P” value in the data set with glucosamine-6-phosphate [2] was under 1e-05 s⁻¹. For the same variant, in the data set with glucosamine-6-phosphate [3], the “self-cleavage kobs at 2500 uM GlcN6P” value was under 1e-05 s⁻¹.
